Test results from US6482607.

Target: SP-Dis-PyCter (Dis-PyCter carrying an amino terminal ER-translocation signal from D. discoideum PsA) (UniProt P02886)
Sequence (P02886 other isoform, or with tags, fused parts or gaps): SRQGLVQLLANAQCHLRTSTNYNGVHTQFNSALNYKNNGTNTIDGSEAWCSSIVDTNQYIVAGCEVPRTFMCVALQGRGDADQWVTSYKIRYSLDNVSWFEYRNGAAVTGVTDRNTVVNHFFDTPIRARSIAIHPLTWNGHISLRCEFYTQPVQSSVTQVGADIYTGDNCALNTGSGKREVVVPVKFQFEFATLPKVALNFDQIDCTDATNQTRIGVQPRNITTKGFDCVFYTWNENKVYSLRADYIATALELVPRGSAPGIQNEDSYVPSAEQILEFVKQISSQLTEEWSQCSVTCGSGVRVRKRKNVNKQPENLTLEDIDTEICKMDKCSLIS

For human thrombin, the “size of the recombinant protein on Western blot after incubation with increasing thrombin (units/ml)” value was “the size of the recombinant protein decreased with increasing thrombin concentrations”.
